Assay results from the Human Domainome abundance scans (Beltran et al. 2025).

B1: Tyrosine-protein kinase Lck, residues 63 to 120; numbered along this chain, P06239 (parent)
chain: DNLVIALHSYEPSHDGDLGFEKGEQLRILEQSGEWWKAQSLTTGQEGFIPFNFVAKAN
B2: Gamma-crystallin C, residues 4 to 79; numbered along this chain, P07315 (parent)
chain: ITFYEDRAFQGRSYETTTDCPNLQPYFSRCNSIRVESGCWMLYERPNYQGQQYLLRRGEYPDYQQWMGLSDSIRSC

Variants of: B1
Assay: abundance fitness (aPCA) (normalised: wild type 0, dead -1); higher = more abundant; growth selection in yeast, the domain comes from the species named
Details: Homo sapiens

Abundance fitness: each site, then its substitutions
F48: T -0.115 | E -0.286 | M -0.063 | Q -0.274 | H -0.172 | G -0.576 | P -0.52 | V -0.096 | R 0.011 | W 0.075 | A -0.235 | D -0.559 | K 0.115 | S -0.308 | L 0.019 | I -0.264
A55: T -0.013 | N -0.231 | G -0.007 | D -0.102 | Q 0.04 | F -0.369 | E 0.037 | W -0.515 | I -0.084 | L -0.4 | V -0.021 | C -0.141 | H -0.27 | Y -0.261 | P -0.835 | M -0.12 | R -0.019 | K -0.154
K56: T -0.095 | H 0.015 | E 0.022 | N 0.055 | I -0.233 | P 0.04 | Q -0.174 | D -0.108 | M -0.146 | W -0.095 | F -0.087 | C -0.117 | L -0.217 | S -0.002 | R -0.09 | V -0.118 | A 0.019 | G -0.123 | Y -0.138
I49: H -0.794 | P -0.759 | Y -1.2 | W -0.967 | M -0.663 | C -0.67 | L -0.367 | K -0.771 | V -0.094 | F -0.427 | N -0.828 | A -0.646 | D -0.801 | E -0.996 | G -0.905 | Q -0.796 | S -0.939 | T -0.622 | R -0.792
F53: E -0.488 | C -0.157 | S 0.032 | T -0.214 | H -0.162 | M -0.143 | K -0.37 | W -0.107 | R -0.196 | L -0.028 | N -0.527 | G -0.423 | I -0.156 | Q -0.293 | V -0.268 | P -0.842 | A -0.013
E46: L -0.157 | Q -0.038 | P -0.745 | N -0.217 | S 0.021 | C -0.023 | H -0.448 | W -0.517 | K -0.05 | I 0.131 | F -0.294 | R -0.207 | Y -0.316 | G -0.632 | A -0.024 | V 0.042 | M -0.032
T43: Q -0.549 | I -0.941 | V -0.854 | M -0.766 | G -0.658 | H -0.622 | A -0.617 | P -0.909 | R -0.624 | D -0.446 | C -0.949 | W -1.1 | S -0.101 | K -0.698 | L -0.831 | E -0.643 | Y -0.85 | N -0.277 | F -0.957
Q45: A -0.087 | H -0.23 | V -0.187 | M -0.092 | S -0.282 | F -0.303 | L -0.112 | D -0.217 | C -0.117 | W -0.599 | P -0.57 | I -0.662 | N -0.288 | G -0.308 | R -0.015 | E 0.001 | K -0.101 | T -0.146
G47: T -0.831 | P -0.687 | I -1.02 | M -0.884 | S -0.931 | W -0.831 | V -0.807 | C -1.07 | D -0.912 | H -0.81 | R -0.687 | Q -0.986 | F -0.982 | E -0.831 | L -0.789
N52: E 0.029 | Y -0.311 | V -0.709 | I -0.854 | D 0.001 | T -0.207 | P -0.628 | W -0.278 | R -0.017 | H -0.189 | A -0.202 | G -0.067 | Q -0.021 | F -0.589 | C -0.303 | L -0.624 | K 0.023
V54: W -0.754 | C -0.375 | N -0.859 | S -0.751 | H -0.967 | A -0.663 | P -0.732 | T -0.45 | I -0.416 | L -0.705 | R -0.813 | E -0.709 | K -1.05 | M -0.715 | Q -0.901 | D -0.926 | F -0.6 | Y -0.826
F51: K 0.103 | N 0.043 | Y -0.037 | R 0.148 | I 0.047 | A 0.104 | D -0.178 | M 0.137 | E -0.022 | Q 0.021 | P 0.07 | V -0.033 | G 0.095 | H -0.055 | T -0.235 | L -0.221 | C 0.163
P50: T -0.851 | M -1.03 | A -1 | V -0.936 | S -0.796 | G -0.888 | D -0.73 | W -0.709 | L -0.995 | H -0.474 | F -0.885 | Y -1.08 | N -0.652 | K -0.719 | E -1.21 | I -0.874
T42: N 0.034 | P -0.715 | Y -0.129 | S -0.031 | M -0.101 | R -0.059 | Q -0.057 | W -0.24 | V -0.001
G44: L -0.271 | N -0.193 | R -0.22 | V -0.819 | H -0.321 | M -0.272 | I -0.591 | E -0.222 | F -0.394 | W -0.541 | T -0.557 | C -0.446 | P -1.07 | Y -0.467 | S -0.268 | A -0.264 | Q -0.24
A57: V -0.023 | N -0.614 | F -0.394 | C -0.244 | Y -0.176 | K -0.18 | R -0.093 | P -0.046 | E 0.092 | S -0.098 | W -0.132 | G -0.076 | L 0.003 | M -0.195 | H -0.057 | I -0.003 | T 0.008 | Q -0.112

Variants of: B2
Assay: as above
Details: Homo sapiens

Abundance fitness, by site and new letter:
F3: S -1.01 | Q -0.94 | C -0.586 | W -0.789 | M -0.071 | L -0.036 | T -0.753 | K -0.991 | V -1.08 | G -1.23 | I -0.368 | P -1 | N -0.826 | R -1.18
I1: M -0.291 | V -0.032 | T -0.722 | L -0.4
D6: A -0.103 | C 0.069 | F -0.204 | E -0.038
T2: A -0.254 | G -0.329 | Q -0.114 | K -0.039 | W -0.201 | R -0.145 | I 0.093 | L -0.15 | C -0.054 | Y 0.088 | P -0.838 | E -0.473 | F 0.101 | M -0.116 | N -0.002 | V 0.049
E5: P -0.127 | R 0.014 | K -0.162 | L -0.334 | Q -0.076 | W -0.209 | I 0.122 | M 0.097 | T -0.156 | G -0.124 | V -0.107 | D -0.008
Y4: L -0.984 | A -0.989 | K -0.862 | G -0.863 | V -1.11 | H -0.364 | E -0.848 | Q -1.01 | F 0.333 | W -0.094 | N -0.631 | P -1.12 | R -0.99 | S -0.725
